{"source": "paper PMC6588460", "target": "AKAP95 (human (endogenous in HEK293T)) (UniProt O43823)", "sequence (O43823 whole entry)": "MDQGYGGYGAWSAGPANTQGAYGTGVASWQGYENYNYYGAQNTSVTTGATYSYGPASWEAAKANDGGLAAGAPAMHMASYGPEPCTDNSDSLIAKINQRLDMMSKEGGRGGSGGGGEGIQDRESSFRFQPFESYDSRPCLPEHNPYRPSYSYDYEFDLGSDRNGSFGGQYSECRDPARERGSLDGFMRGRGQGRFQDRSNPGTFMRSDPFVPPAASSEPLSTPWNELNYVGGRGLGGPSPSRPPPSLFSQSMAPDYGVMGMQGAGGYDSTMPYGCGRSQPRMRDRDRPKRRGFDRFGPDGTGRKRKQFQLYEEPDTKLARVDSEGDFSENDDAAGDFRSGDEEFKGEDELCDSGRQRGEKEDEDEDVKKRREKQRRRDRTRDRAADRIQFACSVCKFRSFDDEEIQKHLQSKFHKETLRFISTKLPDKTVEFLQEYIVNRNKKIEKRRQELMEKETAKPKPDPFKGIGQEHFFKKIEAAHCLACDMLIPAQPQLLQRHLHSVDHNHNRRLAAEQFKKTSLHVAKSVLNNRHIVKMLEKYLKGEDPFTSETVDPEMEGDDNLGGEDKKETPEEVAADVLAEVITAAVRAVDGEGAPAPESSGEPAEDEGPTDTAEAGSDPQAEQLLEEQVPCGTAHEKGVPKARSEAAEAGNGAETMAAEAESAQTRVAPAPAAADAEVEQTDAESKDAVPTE", "assay": "proximity ligation", "data": [{"substance": "PDE4D5 (enzyme)", "values": [{"measurement": "PLA dots per nuclei (dots per nuclei)", "result": 3.8}]}]}
